Bridge positions count the residues as written; N and C are the ends. Square brackets hold non-standard residues; d marks the D form. Ends that are not written are not given here. I, II: the chains in the order shown. 1Nal = N[C@@H](Cc1cccc2ccccc12)C(=O)O; PEG = not defined here
T1: human erythropoietin receptor on Ba/F3-huEPOR cells (human, UniProt P19235 25-508)
T1 sequence (looked up): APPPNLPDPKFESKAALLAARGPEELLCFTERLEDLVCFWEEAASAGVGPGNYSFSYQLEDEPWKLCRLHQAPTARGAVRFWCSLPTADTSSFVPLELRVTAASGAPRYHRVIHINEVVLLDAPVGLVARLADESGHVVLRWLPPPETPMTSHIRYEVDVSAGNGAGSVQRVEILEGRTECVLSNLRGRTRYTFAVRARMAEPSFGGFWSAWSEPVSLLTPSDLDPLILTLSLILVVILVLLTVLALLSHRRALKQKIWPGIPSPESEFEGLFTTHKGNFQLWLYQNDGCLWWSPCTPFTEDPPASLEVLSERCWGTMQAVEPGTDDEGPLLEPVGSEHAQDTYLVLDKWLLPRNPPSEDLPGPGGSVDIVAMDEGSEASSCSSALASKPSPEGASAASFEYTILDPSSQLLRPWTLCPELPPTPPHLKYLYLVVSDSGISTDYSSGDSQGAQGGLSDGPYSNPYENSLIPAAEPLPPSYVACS

B1: Peptide dimer of Example 2, Code No. 20528 (R1 = R2 = GGTYSCHFGPLTBVCRPQGG, n1 = 1, n2 = 0, lysine linker, free cysteine thiols) (peptide)
peptide 1: GGTYSCHFGPLT[1Nal]VCRPQGG
peptide 2: GGTYSCHFGPLT[1Nal]VCRPQGG
modifications: cysteine pairing not given here; also: dimer: C-termini joined through lysine linker, one chain (R1) via a beta-alanine, the other (R2) directly
B2: Peptide dimer of Example 5, Code No. 20531 (R1 = R2 = GTYSCHFGPLTBVCRPQ, n1 = 0, n2 = 0, lysine linker, free cysteine thiols) (peptide)
peptide: GTYSCHFGPLT[1Nal]VCRPQ
modifications: cysteine pairing not given here; also: dimer: C-termini of both chains bound to lysine linker
B3: Peptide dimer of Example 6, Code No. 19957 (R1 = R2 = GGTYSCHFGPLTBVCRPQGG, n1 = 0, n2 = 0, lysine linker, intramolecular disulfide in each chain) (peptide)
peptide: GGTYSCHFGPLT[1Nal]VCRPQGG
modifications: disulfide 6-15; also: dimer: C-termini of both chains bound to lysine (amide) linker
B4: Peptide dimer of Example 11, Code No. 17762 (R1 = R2 = GGTYSCHFGPLTBVCRPQGG, both N-termini PEGylated, n1 = 1, n2 = 1, lysine linker) (peptide)
peptide: {PEG}-GGTYSCHFGPLT[1Nal]VCRPQGG
modifications: not fully specified (C-terminus); cysteine pairing not given here; reading uncertain; also: homodimer: C-termini joined via beta-alanine to a lysine linker, PEG size not given here
B5: Peptide dimer of Example 1, Code No. 17218 (R1 = R2 = GGTYSCHFGPLTBVCRPQGG, n1 = 0, n2 = 0, lysine linker, free cysteine thiols) (peptide)
peptide: GGTYSCHFGPLT[1Nal]VCRPQGG
modifications: cysteine pairing not given here; also: dimer: two identical chains joined at C-termini through a lysine amide linker
B6: Peptide dimer of Example 4, Code No. 20532 (R1 = R2 = GGTYSCHFGPLTBVCRPQ, n1 = 0, n2 = 0, lysine linker, free cysteine thiols) (peptide)
peptide: GGTYSCHFGPLT[1Nal]VCRPQ
modifications: cysteine pairing not given here; also: homodimer: C-termini joined through a lysine linker
B7: Peptide dimer of Example 3, Code No. 20526 (R1 = R2 = GGTYSCHFGPLTBVCRPQGG, n1 = 1, n2 = 1, lysine linker, free cysteine thiols) (peptide)
peptide: GGTYSCHFGPLT[1Nal]VCRPQGG
modifications: not fully specified (C-terminus); cysteine pairing not given here; also: homodimer: C-termini joined via beta-alanine to a lysine linker
B8: Peptide dimer of Example 7, Code No. 17286 (R1 = R2 = GGTYSCHFGPLTBVCRPQGG, n1 = 1, n2 = 0, lysine linker, intramolecular disulfide in each chain) (peptide)
peptide 1: GGTYSCHFGPLT[1Nal]VCRPQGG
peptide 2: GGTYSCHFGPLT[1Nal]VCRPQGG
modifications: disulfide I:6-I:15, II:6-II:15; not fully specified (C-terminus); also: dimer: C-termini joined by lysine linker, R1 through βAla, R2 directly, which chain is R1 not given here
B9: Peptide dimer of Example 10, Code No. 17644 (R1 = R2 = GGTYSCHFGPLTBVCRPQGG, both N-termini acetylated, n1 = 1, n2 = 0, lysine linker) (peptide)
peptide 1: Ac-GGTYSCHFGPLT[1Nal]VCRPQGG
peptide 2: Ac-GGTYSCHFGPLT[1Nal]VCRPQGG
modifications: cysteine pairing not given here; also: dimer: C-termini joined through lysine linker, one chain (R1) via a beta-alanine, the other (R2) directly
B10: Peptide dimer of Example 8, Code No. 19261 (R1 = R2 = GGTYSCHFGPLTBVCRPQGG, n1 = 1, n2 = 1, lysine linker, intramolecular disulfide in each chain) (peptide)
peptide: GGTYSCHFGPLT[1Nal]VCRPQGG
modifications: disulfide 6-15; not fully specified (C-terminus); also: dimer: each chain joined through βAla to lysine linker

What follows are binders tested against T1, human erythropoietin receptor on … (assay: cell-based or functional assay).

EC50, bioassay (Ba/F3-huEPOR cell proliferation) | Binder
200 nM | GGTYSCHFGPLT[1Nal]VCRPQGG (cysteine pairing not given here) [monomeric compound having the sequence GGTYSCHFGPLTBVCRPQGG (SEQ ID NO: 7)]

Biological target: T1, human erythropoietin receptor on …
Assay: cell-based or functional assay
Remark: another data set of the same source

EC50 (nM), bioassay (Ba/F3-huEPOR cell proliferation) | Binder
6 nM | B1
100 nM | B2
0.5 nM | B3
0.4 nM | B4
6 nM | B5
2 nM | Ac-GGTYSCHFGPLT[1Nal]VCRPQGGK (not fully specified; also: cysteine state not given here)
50 nM | B6
5 nM | B7
0.4 nM | B8
5 nM | B9
0.3 nM | B10

Source: US20060270831A1 (AFFYMAX, published 2006)
